From patent US20040001835A1, “Prevention or treatment of cancer using integrin alphavbeta3 antagonists in combination with other agents” (MedImmune, Inc., priority 2002, published 2004)
“Also recorded” adds a separate entry of the source.

What was measured:
[1] = molecular target: T1, αvβ3 expressed on placenta (placental trophoblasts) (Mus musculus, UniProt O54890); assay: Immunohistochemical staining of placental trophoblasts; type: binding; settings: frozen thin sections, antibody 10 μg/ml
T1 construct: from tissue; host or cells: placenta (frozen sections)
T1 sequence (O54890 26-787): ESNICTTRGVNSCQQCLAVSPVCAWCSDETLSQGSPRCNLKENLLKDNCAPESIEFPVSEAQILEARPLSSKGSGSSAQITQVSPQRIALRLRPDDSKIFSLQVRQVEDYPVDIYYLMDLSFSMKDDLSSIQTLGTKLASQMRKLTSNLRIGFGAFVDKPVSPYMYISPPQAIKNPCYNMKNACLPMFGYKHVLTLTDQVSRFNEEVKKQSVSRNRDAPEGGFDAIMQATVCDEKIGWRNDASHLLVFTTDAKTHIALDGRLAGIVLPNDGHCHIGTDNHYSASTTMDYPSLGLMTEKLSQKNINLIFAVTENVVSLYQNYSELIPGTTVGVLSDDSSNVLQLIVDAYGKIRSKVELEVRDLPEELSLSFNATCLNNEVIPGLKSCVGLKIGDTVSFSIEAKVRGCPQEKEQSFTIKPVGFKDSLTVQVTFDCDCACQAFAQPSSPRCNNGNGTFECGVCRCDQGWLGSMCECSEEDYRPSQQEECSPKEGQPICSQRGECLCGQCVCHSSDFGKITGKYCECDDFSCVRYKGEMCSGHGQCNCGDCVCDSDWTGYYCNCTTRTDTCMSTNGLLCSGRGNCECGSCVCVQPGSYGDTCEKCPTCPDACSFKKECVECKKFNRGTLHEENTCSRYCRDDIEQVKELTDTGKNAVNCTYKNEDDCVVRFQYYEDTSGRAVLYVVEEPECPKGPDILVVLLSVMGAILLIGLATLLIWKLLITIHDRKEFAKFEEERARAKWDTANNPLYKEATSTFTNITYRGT
T1 sequence (P43406 31-885 partner limits assumed): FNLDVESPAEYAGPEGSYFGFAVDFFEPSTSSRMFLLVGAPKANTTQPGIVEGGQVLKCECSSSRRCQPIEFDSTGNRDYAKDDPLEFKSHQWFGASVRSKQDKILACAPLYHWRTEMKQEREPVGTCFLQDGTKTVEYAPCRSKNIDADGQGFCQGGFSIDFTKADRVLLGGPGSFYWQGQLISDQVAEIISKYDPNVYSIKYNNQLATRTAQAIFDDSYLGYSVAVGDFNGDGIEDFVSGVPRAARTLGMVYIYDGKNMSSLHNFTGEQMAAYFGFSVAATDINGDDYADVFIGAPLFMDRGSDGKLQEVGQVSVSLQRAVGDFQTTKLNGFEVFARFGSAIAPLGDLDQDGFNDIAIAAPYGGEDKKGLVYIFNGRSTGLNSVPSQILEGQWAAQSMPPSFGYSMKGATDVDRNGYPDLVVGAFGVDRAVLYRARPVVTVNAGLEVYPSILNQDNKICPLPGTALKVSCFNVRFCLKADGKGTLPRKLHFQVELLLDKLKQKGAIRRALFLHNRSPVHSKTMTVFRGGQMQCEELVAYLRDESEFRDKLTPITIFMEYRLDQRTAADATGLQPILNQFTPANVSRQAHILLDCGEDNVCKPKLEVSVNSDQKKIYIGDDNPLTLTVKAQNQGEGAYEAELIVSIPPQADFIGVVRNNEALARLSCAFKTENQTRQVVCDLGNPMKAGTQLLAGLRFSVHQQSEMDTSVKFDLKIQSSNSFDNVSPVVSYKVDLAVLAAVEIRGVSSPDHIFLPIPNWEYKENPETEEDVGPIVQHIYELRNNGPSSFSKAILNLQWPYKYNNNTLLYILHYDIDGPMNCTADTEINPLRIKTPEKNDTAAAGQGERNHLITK
T1 sequence (P43406 887-1044 partner limits assumed): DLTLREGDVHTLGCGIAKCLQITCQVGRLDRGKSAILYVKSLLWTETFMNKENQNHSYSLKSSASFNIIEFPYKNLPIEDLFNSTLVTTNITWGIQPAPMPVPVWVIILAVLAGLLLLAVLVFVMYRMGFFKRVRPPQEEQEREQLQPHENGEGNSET
Procedure: Table 3. Immunohistochemical staining of placental trophoblasts. Placental tissue, a rich source of αvβ3, was collected either immediately after parturition or from freshly-sacrificed, late-term pregnant animals. Tissue fragments, approximately 1 cm^3, were frozen in OCT, and thin sections were stained with monoclonal antibodies (10 μg/ml) at Sierra Biomedical (Sparks, Nev.). Vitaxin® recognized αvβ3 expressed on human, monkey, guinea pig, hamster and rabbit placenta, while […] with human and monkey αvβ3. […] ND, not done.

[2] = molecular target: T2, human β3 complexed to endogenous mouse αv (Homo sapiens, UniProt P05106); assay: Flow cytometric analysis of binding to human β3 transfected B16F10 cells; settings: mouse melanoma B16F10, human β3 with endogenous mouse αv, FACS, FIG. 3
T2 construct: expressed in transfected cells; host or cells: B16F10 mouse melanoma
T2 sequence (P05106 27-788): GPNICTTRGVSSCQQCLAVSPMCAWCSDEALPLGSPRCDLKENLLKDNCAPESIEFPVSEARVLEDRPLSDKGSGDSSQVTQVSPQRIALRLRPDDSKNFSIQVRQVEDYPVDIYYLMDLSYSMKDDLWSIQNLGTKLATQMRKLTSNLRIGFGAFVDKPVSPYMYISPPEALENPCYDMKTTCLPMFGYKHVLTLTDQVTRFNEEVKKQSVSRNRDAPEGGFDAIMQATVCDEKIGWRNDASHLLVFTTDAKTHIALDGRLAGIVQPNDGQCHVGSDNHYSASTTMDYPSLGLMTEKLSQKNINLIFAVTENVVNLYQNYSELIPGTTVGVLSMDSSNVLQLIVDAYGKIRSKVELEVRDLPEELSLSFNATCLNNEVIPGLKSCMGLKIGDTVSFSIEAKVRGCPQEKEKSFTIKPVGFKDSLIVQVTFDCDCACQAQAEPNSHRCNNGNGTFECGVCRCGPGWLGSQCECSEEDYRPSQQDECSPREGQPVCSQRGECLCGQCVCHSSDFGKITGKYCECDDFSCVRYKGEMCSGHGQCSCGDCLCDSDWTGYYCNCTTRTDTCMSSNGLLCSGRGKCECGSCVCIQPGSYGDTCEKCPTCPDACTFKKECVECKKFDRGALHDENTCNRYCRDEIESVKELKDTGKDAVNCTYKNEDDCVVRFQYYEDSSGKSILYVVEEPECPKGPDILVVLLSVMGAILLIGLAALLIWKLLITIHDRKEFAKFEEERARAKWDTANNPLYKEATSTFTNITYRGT
T2 sequence (P43406 31-885 partner limits assumed): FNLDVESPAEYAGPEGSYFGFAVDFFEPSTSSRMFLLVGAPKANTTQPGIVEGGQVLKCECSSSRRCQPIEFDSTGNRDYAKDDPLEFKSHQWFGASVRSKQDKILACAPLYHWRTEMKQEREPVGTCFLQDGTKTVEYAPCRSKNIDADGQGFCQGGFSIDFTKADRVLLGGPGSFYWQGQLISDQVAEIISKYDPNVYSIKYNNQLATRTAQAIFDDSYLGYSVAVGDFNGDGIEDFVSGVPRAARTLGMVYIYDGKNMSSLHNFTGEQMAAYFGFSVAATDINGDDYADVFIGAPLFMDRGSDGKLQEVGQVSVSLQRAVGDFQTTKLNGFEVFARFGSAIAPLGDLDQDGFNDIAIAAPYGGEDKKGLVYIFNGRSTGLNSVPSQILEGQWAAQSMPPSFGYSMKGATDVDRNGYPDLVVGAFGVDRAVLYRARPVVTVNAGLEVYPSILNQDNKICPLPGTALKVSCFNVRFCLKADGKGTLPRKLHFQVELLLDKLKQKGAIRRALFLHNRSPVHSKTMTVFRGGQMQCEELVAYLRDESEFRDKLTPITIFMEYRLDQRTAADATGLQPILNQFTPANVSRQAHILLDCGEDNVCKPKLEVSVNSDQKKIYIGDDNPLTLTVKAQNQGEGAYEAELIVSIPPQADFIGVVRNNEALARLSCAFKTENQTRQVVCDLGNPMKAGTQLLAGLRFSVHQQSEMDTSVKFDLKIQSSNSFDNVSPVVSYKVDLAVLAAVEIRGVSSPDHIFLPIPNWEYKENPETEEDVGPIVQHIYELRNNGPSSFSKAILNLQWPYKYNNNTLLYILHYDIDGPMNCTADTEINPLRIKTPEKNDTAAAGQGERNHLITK
T2 sequence (P43406 887-1044 partner limits assumed): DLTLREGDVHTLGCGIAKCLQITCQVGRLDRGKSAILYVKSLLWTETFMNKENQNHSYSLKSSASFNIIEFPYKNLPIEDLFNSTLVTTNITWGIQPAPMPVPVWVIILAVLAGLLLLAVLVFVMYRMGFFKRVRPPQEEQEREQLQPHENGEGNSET
Procedure: FIG. 3. Flow cytometric analysis of binding of Vitaxin® to human β3 transfected B16F10 cells. In order to determine the binding specificity of Vitaxin® for αvβ3, the mouse melanoma line B16F10 was transfected with an expression vector encoding the human β3 gene. Cells were analyzed by FACS for expression of β3 expressed with the endogenous mouse αv.

mouse Integrin αVβ3 = molecular target: T3, mouse Integrin αVβ3 (Mus musculus, UniProt O54890); assay: Binding to mouse Integrin αVβ3
T3 sequence (O54890 26-787): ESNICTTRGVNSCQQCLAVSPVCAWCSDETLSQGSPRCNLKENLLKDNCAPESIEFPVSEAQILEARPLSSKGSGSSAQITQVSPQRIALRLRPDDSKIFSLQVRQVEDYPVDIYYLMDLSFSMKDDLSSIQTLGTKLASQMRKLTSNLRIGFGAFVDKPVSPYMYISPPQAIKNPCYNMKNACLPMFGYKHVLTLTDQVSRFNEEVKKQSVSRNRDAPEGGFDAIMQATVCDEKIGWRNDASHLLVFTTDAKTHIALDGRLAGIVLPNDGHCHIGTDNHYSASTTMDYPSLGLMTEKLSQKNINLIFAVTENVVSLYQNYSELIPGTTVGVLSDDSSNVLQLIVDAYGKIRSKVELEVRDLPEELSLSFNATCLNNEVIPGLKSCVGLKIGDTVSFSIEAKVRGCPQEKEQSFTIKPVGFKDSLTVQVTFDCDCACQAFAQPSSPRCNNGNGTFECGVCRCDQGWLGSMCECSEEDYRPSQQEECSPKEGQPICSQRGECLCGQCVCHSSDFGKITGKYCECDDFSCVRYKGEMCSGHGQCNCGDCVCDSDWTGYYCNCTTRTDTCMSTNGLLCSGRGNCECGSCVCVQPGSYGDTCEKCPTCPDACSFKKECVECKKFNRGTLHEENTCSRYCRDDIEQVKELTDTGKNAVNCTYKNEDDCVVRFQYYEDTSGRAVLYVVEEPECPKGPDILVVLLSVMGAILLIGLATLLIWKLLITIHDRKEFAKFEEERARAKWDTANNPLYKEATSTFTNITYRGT
T3 sequence (P43406 31-885 partner limits assumed): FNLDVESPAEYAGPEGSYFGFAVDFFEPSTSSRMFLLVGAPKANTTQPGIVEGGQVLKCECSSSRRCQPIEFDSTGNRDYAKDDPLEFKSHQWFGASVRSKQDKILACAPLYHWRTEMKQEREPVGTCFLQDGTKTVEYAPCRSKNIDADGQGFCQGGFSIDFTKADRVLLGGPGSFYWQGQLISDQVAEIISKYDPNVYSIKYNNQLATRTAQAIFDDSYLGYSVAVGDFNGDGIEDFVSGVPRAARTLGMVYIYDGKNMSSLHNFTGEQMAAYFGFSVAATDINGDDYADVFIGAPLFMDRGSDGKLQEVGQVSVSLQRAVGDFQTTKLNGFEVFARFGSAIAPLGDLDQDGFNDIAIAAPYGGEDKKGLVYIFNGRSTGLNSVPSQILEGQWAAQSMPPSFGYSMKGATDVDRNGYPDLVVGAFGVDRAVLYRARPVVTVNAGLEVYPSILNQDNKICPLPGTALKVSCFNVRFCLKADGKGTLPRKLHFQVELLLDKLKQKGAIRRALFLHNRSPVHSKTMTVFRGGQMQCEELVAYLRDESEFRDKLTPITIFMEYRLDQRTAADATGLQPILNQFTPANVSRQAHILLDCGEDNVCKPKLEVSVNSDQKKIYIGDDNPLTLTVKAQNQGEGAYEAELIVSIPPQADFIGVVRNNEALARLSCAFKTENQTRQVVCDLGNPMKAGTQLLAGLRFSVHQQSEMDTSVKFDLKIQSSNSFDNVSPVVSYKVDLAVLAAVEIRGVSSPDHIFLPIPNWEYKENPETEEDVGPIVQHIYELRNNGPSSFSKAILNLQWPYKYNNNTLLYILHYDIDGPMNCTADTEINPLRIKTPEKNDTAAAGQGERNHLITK
T3 sequence (P43406 887-1044 partner limits assumed): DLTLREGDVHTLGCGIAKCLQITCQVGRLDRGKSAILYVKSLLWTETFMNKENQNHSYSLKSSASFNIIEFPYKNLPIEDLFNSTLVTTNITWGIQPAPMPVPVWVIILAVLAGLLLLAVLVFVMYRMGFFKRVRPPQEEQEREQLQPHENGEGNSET

B1: Vitaxin®: humanized blocking monoclonal antibody that binds Integrin αVβ3 (MEDI-522, MedImmune); humanized and optimized version of LM609 (antibody, chains of the INN, looked up, V domains shown)
VH: QVQLVESGGGVVQPGRSLRLSCAASGFTFSSYDMSWVRQAPGKGLEWVAKVSSGGGSTYYLDTVQGRFTISRDNSKNTLYLQMNSLRAEDTAVYYCARHLHGSFASWGQGTTVTVSS
VL: EIVLTQSPATLSLSPGERATLSCQASQSISNFLHWYQQRPGQAPRLLIRYRSQSISGIPARFSGSGSGTDFTLTISSLEPEDFAVYYCQQSGSWPLTFGGGTKVEIK
[1]
  Staining of Placental Trophoblasts: Negative
[2]
  binding to human β3 transfected B16F10 cells: bound; also recorded: recognized the transfected cells
Mouse Integrin αVβ3
  binding to mouse Integrin αVβ3: do not bind
